# Target: AMPAR subunit GluA1, flip isoform (UniProt P19490)
row,Binder,"receptor recovery from desensitization, τrec (GluA1 alone 162.6 ms) [ms]"
1,TARP γ8 with eGFP in the C-tail (natural protein) MESLKRWNEERGLWCEKGVQVLLTTIGAFAAFGLMTIAISTDYWLYTRALICNTTNLTAGDDGPPHRGGSGSSEKKDPGGLTHSGLWRICCLEGLKRGVCVKINHFPEDTDYDHDSAEYLLRVVRASSIFPILSAILLLLGGVCVAASRVYKSKRNIILGAGILFVAAGLSNIIGVIVYISANAGEPGPKRDEEKKNHYSYGWSFYFGGLSFILAEVIGVLAVNIYIERSREAHCQSRSDLLKAGGGAGGSGGSGPSAILRLPSYRFRYRRRSRSSSRGSSEASPSRDASPGGPGGPGFASTDISMYTLSRDPSKGSVAAGLASAGGGGGGAGVGAYGGAAGAAGGGGTGSERDRGSSAGFLTLHNAFPKEAASGVTVTVTGPPAAPAPAPPAPAAPAPGTLSKEAAASNTNTLNRKTTPV,40.9
2,"ncAA-tagged TARP γ8 S72* with eGFP in the C-tail (natural protein, TCO*A (trans-cyclooct-2-en-L-lysine) at position 72) MESLKRWNEERGLWCEKGVQVLLTTIGAFAAFGLMTIAISTDYWLYTRALICNTTNLTAGDDGPPHRGGSGKSEKKDPGGLTHSGLWRICCLEGLKRGVCVKINHFPEDTDYDHDSAEYLLRVVRASSIFPILSAILLLLGGVCVAASRVYKSKRNIILGAGILFVAAGLSNIIGVIVYISANAGEPGPKRDEEKKNHYSYGWSFYFGGLSFILAEVIGVLAVNIYIERSREAHCQSRSDLLKAGGGAGGSGGSGPSAILRLPSYRFRYRRRSRSSSRGSSEASPSRDASPGGPGGPGFASTDISMYTLSRDPSKGSVAAGLASAGGGGGGAGVGAYGGAAGAAGGGGTGSERDRGSSAGFLTLHNAFPKEAASGVTVTVTGPPAAPAPAPPAPAAPAPGTLSKEAAASNTNTLNRKTTPV",45.8
3,"ncAA-tagged TARP γ2 S44* with eGFP in the C-tail (natural protein, TCO*A (trans-cyclooct-2-en-L-lysine) at position 44) MGLFDRGVQMLLTTVGAFAAFSLMTIAVGTDYWLYSRGVCKTKKVSENETSKKNEEVMTHSGLWRTCCLEGNFKGLCKQIDHFPEDADYEADTAEYFLRAVRASSIFPILSVILLFMGGLCIAASEFYKTRHNIILSAGIFFVSAGLSNIIGIIVYISANAGDPSKSDSKKNSYSYGWSFYFGALSFIIAEMVGVLAVHMFIDRHKQLRATARATDYLQASAITRIPSYRYRYQRRSRSSSRSTEPSHSRDASPVGVKGFNTLPSTEISMYTLSRDPLKAATTPTATYNSDRDNSFLQVHNCIQKDSKDSLHANTANRRTTPV",62.3
4,TARP γ2 with eGFP in the C-tail (natural protein) MGLFDRGVQMLLTTVGAFAAFSLMTIAVGTDYWLYSRGVCKTKSVSENETSKKNEEVMTHSGLWRTCCLEGNFKGLCKQIDHFPEDADYEADTAEYFLRAVRASSIFPILSVILLFMGGLCIAASEFYKTRHNIILSAGIFFVSAGLSNIIGIIVYISANAGDPSKSDSKKNSYSYGWSFYFGALSFIIAEMVGVLAVHMFIDRHKQLRATARATDYLQASAITRIPSYRYRYQRRSRSSSRSTEPSHSRDASPVGVKGFNTLPSTEISMYTLSRDPLKAATTPTATYNSDRDNSFLQVHNCIQKDSKDSLHANTANRRTTPV,57.1
